Assay results: paper PMC8295233 (Immunobiology, 2021)
No end group written: not given here.

Key:
ERAP1_R = ERAP1_R (Homo sapiens, UniProt Q9NZ08); experiment: SPR binding analysis of peptide analytes to immobilized ERAP1_R; settings: pH 6.2, read-out: ka
[1] = target: ERAP1 regulatory domain with a C-terminal His6-tag (human, UniProt Q9NZ08 529-941); experiment: SPR
[2] = target: ERAP1 regulatory domain, the domain part of the SPF and LPF fused constructs (human, UniProt Q9NZ08 529-941); experiment: crystal structure

kon (ERAP1_R) [M⁻¹ s⁻¹] | Kd [1] [µM] | koff [1] [s⁻¹] | kon [1] [M⁻¹ s⁻¹] | binding result [2] | Molecule
– | 32 | 0.112 | 3500 | – | SPF single-chain fused construct (ERAP1_R with FKARKF fused to its C-terminal end), His6-tag removed (domain or fragment, human) GFPLITITVRGRNVHMKQEHYMKGSDGAPDTGYLWHVPLTFITSKSDMVHRFLLKTKTDVLILPEEVEWIKFNVGMNGYYIVHYEDDGWDSLTGLLKGTHTAVSSNDRASLINNAFQLVSIGKLSIEKALDLSLYLKHETEIMPVFQGLNELIPMYKLMEKRDMNEVETQFKAFLIRLLRDLIDKQTWTDEGSVSERMLRSQLLLLACVHNYQPCVQRAEGYFRKWKESNGNLSLPVDVTLAVFAVGAQSTEGWDFLYSKYQFSLSSTEKSQIEFALCRTQNKEKLQWLLDESFKGDKIKTQEFPQILTLIGRNPVGYPLAWQFLRKNWNKLVQKFELGSSSIAHMVMGTTNQFSTRTRLEEVKGFFSSLKENGSQLRCVQQTIETIEENIGWMDKNFDKIRVWLQSEKLERMFKARKF
– | – | – | – | binds | FKARKF [SPF peptide (short peptide with Phe anchor), the peptide part of the SPF fused construct]

More lines, now with the values behind:

Molecule | kon (ERAP1_R) [M⁻¹ s⁻¹] | Kd [1] [µM] | koff [1] [s⁻¹] | kon [1] [M⁻¹ s⁻¹] | binding result [2]
LVAFKARKF [Free Peptide (LVAFKARKF), LVAFKARKF] | 734 | – | – | – | –
LPF single-chain fused construct (ERAP1_R with AAAAFKARKF fused to its C-terminal end), His6-tag removed (domain or fragment, human) GFPLITITVRGRNVHMKQEHYMKGSDGAPDTGYLWHVPLTFITSKSDMVHRFLLKTKTDVLILPEEVEWIKFNVGMNGYYIVHYEDDGWDSLTGLLKGTHTAVSSNDRASLINNAFQLVSIGKLSIEKALDLSLYLKHETEIMPVFQGLNELIPMYKLMEKRDMNEVETQFKAFLIRLLRDLIDKQTWTDEGSVSERMLRSQLLLLACVHNYQPCVQRAEGYFRKWKESNGNLSLPVDVTLAVFAVGAQSTEGWDFLYSKYQFSLSSTEKSQIEFALCRTQNKEKLQWLLDESFKGDKIKTQEFPQILTLIGRNPVGYPLAWQFLRKNWNKLVQKFELGSSSIAHMVMGTTNQFSTRTRLEEVKGFFSSLKENGSQLRCVQQTIETIEENIGWMDKNFDKIRVWLQSEKLERMAAAAFKARKF | – | 21.3 | 0.091 | 4270 | –
AAAAFKARKF [LPF peptide (long peptide with Phe anchor), the peptide part of the LPF fused construct] | – | – | – | – | binds
LVAFKARKF [free peptide LVAFKARKF (optimized ERAP1 substrate)] | – | 19.8 | 0.0145 | – | –
